For experiment [1], the target named is T1, FcγRIIb extracellular domain with C-terminal His tag (human, UniProt P31994 43-217).
T1 construct: extracellular domain; also called FcgRIIb; 2b; not shown: His tag at the C terminus
T1 sequence (looked up): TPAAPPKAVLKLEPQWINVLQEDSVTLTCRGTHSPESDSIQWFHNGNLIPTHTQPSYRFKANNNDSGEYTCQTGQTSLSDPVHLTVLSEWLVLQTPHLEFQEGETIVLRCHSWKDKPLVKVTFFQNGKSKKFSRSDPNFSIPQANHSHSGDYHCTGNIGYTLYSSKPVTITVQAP
In words: SPR (Biacore), captured antibody, FcγR as analyte; relative to GpH7-A5/GpH7-B3/GpL16-k0 = 100. The procedure: (§1) Analysis of interaction between objective antibody and the FcγR was carried out using Biacore T100 (GE Healthcare). HBS-EP+ (GE Healthcare) was used as the running buffer, and the measurement temperature was set to 25° C. Chips produced by immobilizing the antigen peptide by the amine coupling method to a Series S Sencor Chip CM5 (GE Healthcare), or alternatively, chips produced by allowing preliminarily biotinylated antigen peptides to interact with and immobilize onto a Series S Sensor Chip SA (certified) (GE Healthcare) were used. Antibodies of interest were captured onto an antigen peptide-immobilized chip, and allowed to interact to each FcγR diluted with running buffer. To regenerate and repeatedly use the chip, the antibodies captured on the chip were washed off by reacting 10 mM glycine-HCl, pH 1.5.
(§2) The FcγR-binding activity of each antibody was assessed primarily using as an indicator the FcγR-binding activity and dissociation constant for FcγR.
Background: SPR reads the build-up and loss of mass on a sensor chip optically.

The target in experiment [2] is T2, FcγRIIIa extracellular domain with C-terminal His tag (human, UniProt P08637 17-208).
T2 construct: extracellular domain; also called FcgRIIIa; 3a; not shown: His tag at the C terminus
The description is as above. The protocol:
as §1, §2

T2 sequence (P08637 17-208): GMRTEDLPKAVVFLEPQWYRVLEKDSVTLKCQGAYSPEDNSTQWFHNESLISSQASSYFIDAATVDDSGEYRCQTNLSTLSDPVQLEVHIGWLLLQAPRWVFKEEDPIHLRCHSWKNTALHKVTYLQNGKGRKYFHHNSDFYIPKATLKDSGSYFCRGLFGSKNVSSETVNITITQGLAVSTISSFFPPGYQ

B1: GpH7-A5/GpH7-B3 variant P238_09D/GpL16-k0 (heterodimerized antibody, He Ab) (antibody, human IgG1, kappa)
heavy 1: not shown
heavy 2: not shown
light: DIVMTQSPLSLPVTPGEPASISCQASESLVHSNRNTYLHWYLQKPGQSPQLLIYKVSNRFSGVPDRFSGSGSGTDFTLKISRVEAEDVGVYYCSQNTHVPPTFGQGTKVEIERTVAAPSVFIFPPSDEQLKSGTASVVCLLNNFYPREAKVQWKVDNALQSGNSQESVTEQDSKDSTYSLSSTLTLSKADYEKHKVYACEVTHQGLSSPVTKSFNRGEC
notes: Anti-glypican-3 IgG1; the alteration is in the GpH7-B3 chain only; also called P238D
As to B1, in experiment [1], the “He/Con_2b (IIb binding)” value is 221 % of HeCon Ab. Besides, the “He/Con_3a (IIIa binding)” value in experiment [2] is 106 % of HeCon Ab.

B2: GpH7-A5/GpH7-B3 variant G237_19Q/GpL16-k0 (heterodimerized antibody, He Ab) (antibody, human IgG1, kappa)
heavy 1: not shown
heavy 2: not shown
light: B1 light
notes: Anti-glypican-3 IgG1; the alteration is in the GpH7-B3 chain only; also called G237Q
In the case of B2, the “He/Con_2b (IIb binding)” value in experiment [1] was 108 % of HeCon Ab. Moreover, the “He/Con_3a (IIIa binding)” value in experiment [2] is 43.3 % of HeCon Ab.

B3: GpH7-A5/GpH7-B3 variant G237_16H/GpL16-k0 (heterodimerized antibody, He Ab) (antibody, human IgG1, kappa)
heavy 1: not shown
heavy 2: not shown
light: B1 light
notes: Anti-glypican-3 IgG1; the alteration is in the GpH7-B3 chain only; also called G237H
For the molecule B3, in experiment [1], the “He/Con_2b (IIb binding)” value is 55.2 % of HeCon Ab. Also, the “He/Con_3a (IIIa binding)” value in experiment [2] was 17.2 % of HeCon Ab.

B4: GpH7-A5/GpH7-B3 variant G236_18N/GpL16-k0 (heterodimerized antibody, He Ab) (antibody, human IgG1, kappa)
heavy 1: not shown
heavy 2: not shown
light: B1 light
notes: Anti-glypican-3 IgG1; the alteration is in the GpH7-B3 chain only; also called G236N
With B4, the “He/Con_2b (IIb binding)” value in experiment [1] is 96.4 % of HeCon Ab. For the same molecule, in experiment [2], the “He/Con_3a (IIIa binding)” value was 37.8 % of HeCon Ab.

B5: GpH7-A5/GpH7-B3 variant P238_02A/GpL16-k0 (heterodimerized antibody, He Ab) (antibody, human IgG1, kappa)
heavy 1: not shown
heavy 2: not shown
light: B1 light
notes: Anti-glypican-3 IgG1; the alteration is in the GpH7-B3 chain only; also called P238A
As for B5, in experiment [1], the “He/Con_2b (IIb binding)” value was 57.4 % of HeCon Ab. Further, the “He/Con_3a (IIIa binding)” value in experiment [2] was 31.4 % of HeCon Ab.

B6: GpH7-A5/GpH7-B3 variant L235_09D/GpL16-k0 (heterodimerized antibody, He Ab) (antibody, human IgG1, kappa)
heavy 1: not shown
heavy 2: not shown
light: B1 light
notes: Anti-glypican-3 IgG1; the alteration is in the GpH7-B3 chain only; also called L235D
As for B6, the “He/Con_2b (IIb binding)” value in experiment [1] was 106 % of HeCon Ab. Also, the “He/Con_3a (IIIa binding)” value in experiment [2] was 91.6 % of HeCon Ab.

B7: GpH7-A5/GpH7-B3 variant P238_04F/GpL16-k0 (heterodimerized antibody, He Ab) (antibody, human IgG1, kappa)
heavy 1: not shown
heavy 2: not shown
light: B1 light
notes: Anti-glypican-3 IgG1; the alteration is in the GpH7-B3 chain only; also called P238F
For B7, the “He/Con_2b (IIb binding)” value in experiment [1] is 312 % of HeCon Ab. Also, the “He/Con_3a (IIIa binding)” value in experiment [2] is 46.7 % of HeCon Ab.

B8: GpH7-A5/GpH7-B3 variant G237_04F/GpL16-k0 (heterodimerized antibody, He Ab) (antibody, human IgG1, kappa)
heavy 1: not shown
heavy 2: not shown
light: B1 light
notes: Anti-glypican-3 IgG1; the alteration is in the GpH7-B3 chain only; also called G237F
Turning to B8, the “He/Con_2b (IIb binding)” value in experiment [1] is 149 % of HeCon Ab. In addition, in experiment [2], the “He/Con_3a (IIIa binding)” value was 25.3 % of HeCon Ab.

B9: GpH7-A5/GpH7-B3 variant P238_12R/GpL16-k0 (heterodimerized antibody, He Ab) (antibody, human IgG1, kappa)
heavy 1: not shown
heavy 2: not shown
light: B1 light
notes: Anti-glypican-3 IgG1; the alteration is in the GpH7-B3 chain only; also called P238R
As for B9, in experiment [1], the “He/Con_2b (IIb binding)” value was 51.4 % of HeCon Ab. Besides, in experiment [2], the “He/Con_3a (IIIa binding)” value was 12.2 % of HeCon Ab.

B10: GpH7-A5/GpH7-B3 variant L234_09D/GpL16-k0 (heterodimerized antibody, He Ab) (antibody, human IgG1, kappa)
heavy 1: not shown
heavy 2: not shown
light: B1 light
notes: Anti-glypican-3 IgG1; the alteration is in the GpH7-B3 chain only; also called L234D
B10: the “He/Con_2b (IIb binding)” value in experiment [1] is 150 % of HeCon Ab. Also, the “He/Con_3a (IIIa binding)” value in experiment [2] was 117 % of HeCon Ab.

B11: GpH7-A5/GpH7-B3 variant P238_20W/GpL16-k0 (heterodimerized antibody, He Ab) (antibody, human IgG1, kappa)
heavy 1: not shown
heavy 2: not shown
light: B1 light
notes: Anti-glypican-3 IgG1; the alteration is in the GpH7-B3 chain only; also called P238W
Consider B11, for which the “He/Con_2b (IIb binding)” value in experiment [1] was 123 % of HeCon Ab. Also, the “He/Con_3a (IIIa binding)” value in experiment [2] was 49.7 % of HeCon Ab.

B12: GpH7-A5/GpH7-B3 variant P238_11K/GpL16-k0 (heterodimerized antibody, He Ab) (antibody, human IgG1, kappa)
heavy 1: not shown
heavy 2: not shown
light: B1 light
notes: Anti-glypican-3 IgG1; the alteration is in the GpH7-B3 chain only; also called P238K
Consider B12, for which the “He/Con_2b (IIb binding)” value in experiment [1] was 18.1 % of HeCon Ab. Besides, in experiment [2], the “He/Con_3a (IIIa binding)” value was 10.4 % of HeCon Ab.

B13: GpH7-A5/GpH7-B3 variant P238_07I/GpL16-k0 (heterodimerized antibody, He Ab) (antibody, human IgG1, kappa)
heavy 1: not shown
heavy 2: not shown
light: B1 light
notes: Anti-glypican-3 IgG1; the alteration is in the GpH7-B3 chain only; also called P238I
On to B13, for which the “He/Con_2b (IIb binding)” value in experiment [1] is 80 % of HeCon Ab. For the same molecule, the “He/Con_3a (IIIa binding)” value in experiment [2] is 27.8 % of HeCon Ab.

B14: GpH7-A5/GpH7-B3 variant L235_04F/GpL16-k0 (heterodimerized antibody, He Ab) (antibody, human IgG1, kappa)
heavy 1: not shown
heavy 2: not shown
light: B1 light
notes: Anti-glypican-3 IgG1; the alteration is in the GpH7-B3 chain only; also called L235F
As for B14, in experiment [1], the “He/Con_2b (IIb binding)” value is 118 % of HeCon Ab. Moreover, the “He/Con_3a (IIIa binding)” value in experiment [2] was 79.1 % of HeCon Ab.

B15: GpH7-A5/GpH7-B3 variant P238_01G/GpL16-k0 (heterodimerized antibody, He Ab) (antibody, human IgG1, kappa)
heavy 1: not shown
heavy 2: not shown
light: B1 light
notes: Anti-glypican-3 IgG1; the alteration is in the GpH7-B3 chain only; also called P238G
B15: the “He/Con_2b (IIb binding)” value in experiment [1] is 56 % of HeCon Ab. Besides, in experiment [2], the “He/Con_3a (IIIa binding)” value was 33 % of HeCon Ab.

B16: GpH7-A5/GpH7-B3 variant G237_13S/GpL16-k0 (heterodimerized antibody, He Ab) (antibody, human IgG1, kappa)
heavy 1: not shown
heavy 2: not shown
light: B1 light
notes: Anti-glypican-3 IgG1; the alteration is in the GpH7-B3 chain only; also called G237S
For B16, the “He/Con_2b (IIb binding)” value in experiment [1] was 111 % of HeCon Ab. For the same molecule, the “He/Con_3a (IIIa binding)” value in experiment [2] is 38.4 % of HeCon Ab.

B17: GpH7-A5/GpH7-B3 variant P238_10E/GpL16-k0 (heterodimerized antibody, He Ab) (antibody, human IgG1, kappa)
heavy 1: not shown
heavy 2: not shown
light: B1 light
notes: Anti-glypican-3 IgG1; the alteration is in the GpH7-B3 chain only; also called P238E
In the case of B17, the “He/Con_2b (IIb binding)” value in experiment [1] is 232 % of HeCon Ab. For the same molecule, in experiment [2], the “He/Con_3a (IIIa binding)” value was 105 % of HeCon Ab.

B18: GpH7-A5/GpH7-B3 variant P238_13S/GpL16-k0 (heterodimerized antibody, He Ab) (antibody, human IgG1, kappa)
heavy 1: not shown
heavy 2: not shown
light: B1 light
notes: Anti-glypican-3 IgG1; the alteration is in the GpH7-B3 chain only; also called P238S
For B18, the “He/Con_2b (IIb binding)” value in experiment [1] was 70.4 % of HeCon Ab. For the same molecule, the “He/Con_3a (IIIa binding)” value in experiment [2] is 44.9 % of HeCon Ab.

B19: GpH7-A5/GpH7-B3 variant G237_18N/GpL16-k0 (heterodimerized antibody, He Ab) (antibody, human IgG1, kappa)
heavy 1: not shown
heavy 2: not shown
light: B1 light
notes: Anti-glypican-3 IgG1; the alteration is in the GpH7-B3 chain only; also called G237N
Regarding B19, in experiment [1], the “He/Con_2b (IIb binding)” value is 180 % of HeCon Ab. In experiment [2], the “He/Con_3a (IIIa binding)” value was 20.3 % of HeCon Ab.

For the origin of these results see patent US20180155451A1 (published 2018).
